Measured values reported in the DeepSol protein solubility set.

assay: soluble on expression in E. coli; label from the status in PepcDB or PDB records

Row | Sequence | soluble on expression in E. coli
1 | MTNWKPLVSVITPSYNARDYIEDTVHSVLDQSHPHWEMIIVDDCSTDGTRDILQQYEKIDERIHVVYLEENSGAAVARNKALERAQGRYVAFLDSDDKWKKDKLEKQLEFMMERSCAFSFTGYSLMAQDGTPLDKFIHAPESLTYDDALKNTIIGCLTVMIDREQTGQIQMPNIRTRQDLATWLSLLKKGFTAYGMNECLAEYRLVNNSISSNKWKAAKKTWFVYREIERLHFMKATWCFVQYAKNAVKKRL | soluble
2 | MLKMIAFDFDGTLAPTIPMVIDVFRRSVAPYVEHELTKQAIVQTFGLNEVGMVKAVAGQRWPVALAAFYQEYARAHLRVSAPYPGIVTLLELLQQQGVALALITGKAAKSCQISLDVTGLTSYFPTRLYGSECQPNKADNLRQLMRTKSLDAAELFYVGDTRSDFEAADTAGVQCLTAAWDPNQPIVEAGDQIVFTSVEQLWAYLQRRLGHGLVRPMSHKPR | not soluble
3 | MKAARQQAIVDLLLNHTSLTTEALSEQLKVSKETIRRDLNELQTQGKILRNHGRAKYIHRQNQDSGDPFHIRLKSHYAHKADIAREALAWIEEGMVIALDASSTCWYLARQLPDINIQVFTNSHPICHELGKRERIQLISSGGTLERKYGCYVNPSLISQLKSLEIDLFIFSCEGIDSSGALWDSNAINADYKSMLLKRAAQSLLLIDKSKFNRSGEARIGHLDEVTHIISDERQVATSLVTA | soluble
4 | MTDKLPLALFLMGPTASGKTELAIRLRQKFPVEIISVDSALIYKGMDIGTAKPDERELSLAPHRLIDILDPSESYSAADFRRDALQAMDDIVAEGKIPLLVGGTMLYYKALLEGLSPLPAANPEIRQQIEQEALTKGWSVLHDELKEIDPVSAARIHPNDPQRLSRALEVYRISGKTLTELTQTKGESLPYRVKQFAIAPKDRAELHRRIELRFDKMMEAGFEEEMKALYARKDLHPDLPSIRCVGYRQMWEYLDGECTRDEAVFRGVCATRQLAKRQITWLRSWDDLTWLDSDNIEQALETMSEAIASDLEHHHHHH | soluble
5 | SDWKLEGSTQKVESPVLQGQEGILEETGEDGLPEGFQLLQIDAEGECQEGEILATGSTAWCSKNVQRKQRHWEKIVAAKKSKRKQEKERRKANRAENPGICPQHSKRFLRALTKDKLLEAKHSGPRLCIDLSMTHYMSKKELSRLAGQIRRLYGSNKKADRPFWICLTGFTTDSPLYEECVRMNDGFSSYLLDITEEDCFSLFPLETLVYLTPDSEHALEDVDLNKVYILGGLVDESIQKKVTFQKAREYSVKTARLPIQEYMVRNQNGKNYHSEILAINQVFDILSTYLETHNWPEALKKGVSSGKGYILRNSVE | soluble
6 | HHHHHHMSKRETFNETFLKAARGEKADHTPVWYMRQAGRSQPEYRKLKEKYGLFEITHQPELCAYVTRLPVEQYGVDAAILYKDIMTPLPSIGVDVEIKNGIGPVIDQPIRSLADIEKLGQIDPEQDVPYVLETIKLLVNEQLNVPLIGFSGAPFTLASYMTEGGPSKNYNKTKAFMYSMPDAWNLLMSKLADMIIVYVKAQIKAGAKAIQIFDSWVGALNQADYRTYIKPVMNRIFSELAKENVPLIMFGVGASHLAGDWHDLPLDVVGLDWRLGIDEARSKGITKTVQGNLDPSILLAPWEVIEQKTKEILDQGMESDGFIFNLGHGVFPDVSPEVLKKLTAFVHEYSQNKKMGQYS | soluble
7 | MEIVLTREKMEITATPIRTRYIDRNEDFVSESIHSLKKEIENGFEIKNGDFLVVSEKFIATSEDNFVDESLADPKFWAYFTYYLSKYGWGYVLGPLLGTRGDRVKNLRKMPKTETLKHKQIVIENVGLIYALKPASEGGIDLTNVPGTYASLLPENPEYSAKKLHKKIKEDLDLDLTVMVIDTDATYRFFNWYVTALPIAVEGITSKIGVFGYILGKFGKILNQGGLCGATPLAITGNENYKKYPLKTLLYIANLSDTSQVPYTKSIHDLMKKYNTFEITVDVLKEMEHSPLVIVKCE | not soluble
8 | MNVILFDGICNLCNGAVTFVVKRDRKGLFRFVSLQSETGKSLLKRYAVESTNKTLYYFRNNRCYSKSTAILYILKDLGGFWQCLYPLILIPAKLRDAIYLLVSKYRYRIFGKADSCIKPFGFSSEESKRSDLEHHHHHH | not soluble
9 | QMTARDVYLPVAAQPSVDTLVGMSQQAEDRGYDRVWLPETWGRDAVTTLTSIAEHTSTVGLGSSILNVYSRSPALLGQTAATLQEVSDGRFRAGVGPSGPIVIEGWHGREFESPLKYTRETVDIMKQVLSGETVDYDGDIFSLSGFRLRCEPPEPAPPVDAGGLGPKSVELAGRFADGWHALMLTADGLRDRLEDFEHGADLGDRDRADQRVTLSLTCCAMDDREQARELARQHVAFYIGGMGTFYRDALARQGYEDTAYEIAEQWGSGNKGAAVDAISDELLDSIAVAGTPEDCRDRIAQFEDIDGVDAINISFPRAAERDTIDTTIDVL | not soluble
10 | MKALLLLVLPWLSPANYIDNVGNLHFLYSELCKGASHYGLTKDRKRRSQDGCPDGCASLTATAPSPEVSAAATISLMTDEPGLDNPAYVSSAEDGQPAISPVDSGRSNRTRARPFERSTIRSRSFKKINRALSVLRRTKSGSAVANHADQGRENSENTTAPEVFPRLYHLIPDGEITSIKINRVDPSESLSIRLVGGSETPLVHIIIQHIYRDGVIARDGRLLPGDIILKVNGMDISNVPHNYAVRLLRQPCQVLWLTVMREQKFRSRNNGQAPDAYRPRDDSFHVILNKSSPEEQLGIKLVRKVDEPGVFIFNVLDGGVAYRHGQLEENDRVLAINGHDLRYGSPESAAHLIQASERRVHLVVSRQVRQRSPDIFQEAGWNSNGSWSPGPGERSNTPKPLHPTITCHEKVVNIQKDPGESLGMTVAGGASHREWDLPIYVISVEPGGVISRDGRIKTGDILLNVDGVELTEVSRSEAVALLKRTSSSIVLKALEVKEYEPQEDCSSPAALDSNHNMAPPSDWSPSWVMWLELPRCLYNCKDIVLRRNTAGSLGFCIVGGYEEYNGNKPFFIKSIVEGTPAYNDGRIRCGDILLAVNGRSTSGMIHACLARLLKELKGRITLTIVSWPGTFL | soluble
11 | MMDAMTDPITFAATAAGRDAAHPLRDISFGEIGIATERKPDGTIYVRSTTTLTDYPVRITDRLHHFAETAPDRVFMAERNGEGGWRRISYAEMLRAAQTIASALIARGLSAERPVMILSGNSIDHAMVMFGALYAGVAMCPVSPPYSLVSKDYGKLRHIVGLLTPGLIFADDITAFAPAILATVPEDVELAATRGEVKGRKVTSLAELLATPEHPELAAKHEAIGHDTIAKFLLTSGSTGNPKAVINTQRMICANQVMIREAMAFLKDEPPVIVDWLPWNHTFGGNHNIGLTLFNGGSMYIDDGKPTPAGIASTIRNLREIAPTVYFNVPKGYESLLPVLREDQQLRKLFFSRLHAMFFSGASLAAHVWNGLDEVAVAETGARVPMLTGLGATETAPFFMSVTPQTSRSGHVGLPVPGNEAKLVPNNGKLEVRAKGPNITPGYWRAPELTDKAFDEEGFYKLNDALKPVDANDLSRGFDFDGRISEDFKLASGTWVSVGPLRAKFIAACASLVRDVVIAGLDRDYVTALAILDPDGCKLINATLPLEDLAGMAADHLIREAFRERFATLLTQATGSSNRVTRAVLLGEPLSIDKGEITDKGSVNQRAVLEYRASLIADLYADPPPAHVIALELEHHHHHH | soluble
12 | GSHMTIEQMVDRLLSYPERTKMQILAPIVSGKKGTHAKTLEDIRKQGYVRVRIDREMRELTGDIELEKNKKHSIDVVVDRIIIKDGIAARLADSLETALKLADGKVVVDVIGEGELLFS | soluble
13 | MNICMRNGYEQFSLTSPGTSDLEIGGSFWKDEPDTKYLCLDSPVEQRQHQPPMAVCAGCRLEISDRYFLRVNPNLEFHAQCLKCVQCSRPLDENQTAFVKNGQTYCRDDYRRLFTTRCSRCHGDFDKTDLVMRAGPQNVFHLNCFACVACEKRLQTGEEFQIKNNSLYCRSDCRGLDNPDTSASVPDYSKLNNNNNNDNNNSSSNFDEDEWDEERSTLTSLDNNTSSPLGSPKSDGVRTPLFGHHNSGSGGSTSSCGKKKKDKQATRVRTVLNENQLKILRDCYSINSRPDATLKERLVEMTGLSARVIRVWFQNKRCKDKKRQIQITENRLNSEREEVLNRVRVNGIGPLMVQPATPHIDNTLGGPIDIQHFAQWNGTPPPPPPQYGNPMMFNSPSTFDVSVILAPVAPNVTSPSEALGPLGASVFPHFSPQHAPFTATSHDISSPAPCGE | not soluble
14 | MSITEQVDVAIVGSGPAGLAAAIELRRQGVARVCVLERDGEAGGIPRHCAHPPFGLREHGRLLTGPAYAQRNVEQAERAGVDIRLRHSVVALAAAGLLQLATPEGPRSLRATRVLLATGARETPRSARLLGGDRPLGVINTGALQAYLYLQGLKPFERPLIVGTELVSLSAVMSCRRAGIRPVAMLERNARATARWPLSLFPRLCGVPMHFSSELLEIEGRGRVEAARVRLGDGRVERIACDGILLSGRFVPESSLVRLSHLELDPASGGPRIDQFGRCSDPAYFAAGNLLRPIETAGWSFREGRRIAGLLAADLRAELPSAAPGIAIDCSGPLKLCVPQRLLADPTPGLAHLQLRVSEAASGRLRILADGRPVWERALSCLPERRLLVPLAALRLPPDTRRLEVAFLTSGHLEHHHHHH | not soluble
15 | MELTTKLVGTCSALDRLYQSGSAKCLFPRNSRAGLEAVLLNTAGGVTGGDRLSFSAQVRAGTRLSVTTQACERAYRAQPGETGQVRNHLSVATGARMNWLPQETILYDGSSLDRRLSVEIEPGASLLMVEPLVFGRIEMGESLNDARFCDRIEITRRGRPIFLDATRLQGGIAAHLAKPFIANGAGAMALLVYLAENAEAVLPRLRQMLPECAGASLIGEDLLVMRVLAADSFLLRQSLLPALRLLNNNEIPRCWTILEHHHHHH | not soluble
16 | MDILLMDTIQQEVLALFREEIPGYLDSNWKEIPLELDSDLFEAPGDDLHEALDKFEKKFNVDLSQVKWSCYFPWENTPLLTRWFKLKREDVERTRKPLTIRMFSESAKAGKWLYD | not soluble
17 | MYGISVFLGEEITNDTIIYIKKMKALGFDGIFTSLHIPEDDTSLYRQRLTDLGAIAKAEKMKIMVDISGEALKRAGFSFDELEPLIELGVTGLRMDYGITIEQMAHASHKIDIGLNASTITLEEVAELKAHQADFSRLEAWHNYYPRPETGIGTTFFNEKNRWLKELGLQVFTFVPGDGQTRGPIFAGLPTLEKHRGQNPFAAAVGLMADPYVDAVYIGDPTISERTMAQFGYYHQTNQFLLEVAPSESRYLKRILGTHTNRLDAARDVLRSELSRTSEMFRKDEIATIESEQTEARPVGTVTIDNEKYGRYMGEIQVTLVDLPKDEKVNTITRIIEKDQTILPLIKAGNQFTLVTEGTIENEFRKLNN | soluble
18 | MGSDKIHHHHHHMIISDVLYGEFEVDQVVEELILSKSVQRLKGIHQTGASYLVNKEWNVTRFDHSVGVMLLVKKLGGSVEEQIAGLLHDVSHTAFSHVVDYVFDNRNESYHEEIFSSVVKHSEIPAILAKYGYNYEEILLDDSKWTLLERSAPELCADRVDYTLRDMYTYGYISLEEAHSFLEDVIEVNGKMVLQNIEMAEWFTETYYKEVIDFFMQPMNSYGNDMLAKTLKLALHKKVIHADDFLLEDDELISKLQQCSDPEVHALVSKVHPNVKVKEDRNDYDLYQNNKVRLIDPSLLREGEVVPSSVVSENIRKMSEIAYEKAVRGMYVKVVSD | not soluble
19 | GSDALVGRLVKSSWDMKSLDLHSMLVETMSKSDHVLIVGFGRGGQTVGRVLAQEDIPYFALDLDIARVQVARSAGEPVSFGDAKRREVLEAAGLGRAKMVVVTLNNMHETQHVLDNVLSMYPNMPVYVRATNDDYVKTFTDIGAEEAVSDTKETGLVLAGYAMLGNGASYRHVYQTMANIRHSRYAALEGLFVGSDDEAGFGENGETVRHAFPLAAEAYAVGKTVGTLPMAAYGIKLLFVRRRTGRIENPDASFTLEGGDVLVVAGKKEEIISFENWSLQGI | not soluble
